Molecular target: T cell receptor of CD8+ T cells from OT1 transgenic mice (ova-specific T cells)
Assay: cell-based or functional assay

H-2Kb SIINFEKL-DBCO-Thiolinker monomer clicked onto azido-labeled murine erythroid cells (from UniProt P01901 22-305) (peptide-MHC)
expansion of OT1 cells in vivo after a second aAPC dose (FIG. 6): > 200 fold

— patent US20190290686A1
